Measured values published in patent publication US20140287419A1, “Compositions Having Dicamba Decarboxylase Activity and Methods of Use” (priority 2013, published 2014).
Substitutions are numbered along the chain they refer to. Names may count otherwise. “Also recorded” adds a separate entry of the source.

B1: SEQ ID NO:108: hypothetical protein SAV2580, Staphylococcus aureus subsp. aureus Mu50 (protein, listed as Staphylococcus aureus)
chain: MAKSITFEEHYVIEDIQKETMNAISADPKGVPMKVMLEGLEKKTGFTNADELSHHDERIQFMNNQDVQIQVLSYGNGSPSNLVGQKAIELCQKANDQLANYIAQYPNRFVGFATLPINEPEAAAREFERCINDLGFKGALIMGRAQDGFLDQDKYDIIFKTAENLDVPIYLHPAPVNSDIYQSYYKGNYPEVTAATFACFGYGWHIDVGIHAIHLVLSGIFDRYPKLNMIIGHWGEFIPFFLERMDEALFAEHLNHSVSYYFKNSFYITPSGMLTKPQFDLVKKEVGIDRILYAADYPYIEPEKLGVFLDELGLTDEEKEKISYTNGAKLLGLSSNN
B2: SEQ ID NO:115: Design variant of SEQ ID NO: 1 (protein)
chain: MAQGKVALEEHFAIPDTLTTYTTSGDYEKELKHRLLDIQDTRLKLMDAHGIETMILSLNAPGVQAIPDRRKAIEIARRANDVLAEECAKRPDRFLAFAALPLQDPDAATEELQRCVNDLGFVGALVNGFSQEGDGQTPLYYDLPQYRPFWGEVEKLDVPFYLHPRNPLPQDSRIYDGHPWLLGPTWAFAQETAVHALRLMASGLFDEHPRLNIILGHMGEGLPYMMWRIDHRNAWVKTPPRYPAKRRFMDYFNENFHITTSGNFRTQTLIDAILEIGADRILFSTDWPFENIDHASDWFNATSIAEADRVKIGRTNARRLFKLDGA
modifications: Dicamba decarboxylase variant clone DC.4.161
B3: SEQ ID NO:32: o-pyrocatechuate decarboxylase, Streptomyces violaceusniger Tu 4113 (protein)
chain: MARIIAIEEHFLDLDIARASRPEAERLSPAFAAAYGAGQGYNYSPAPEVLLDLEEGRVADMDAHGISMQVLSSLSTQQLPADVAVELVRKVNDRAAAAVAARPDRFAAFAALPTTVPEAAADELDRAVGELGFVGSMINGRTGDAFLDAPRFDAVLRRSAELRVPVYLHPGVPPVETSRSNYEGGLDPIVTARLQTSAWGWHVETGIHFLHLVLAGVFDRYPDLQVILGHWGEMVPFFLERIEEALPQQITHLDRPVGAYFRENAHITPSGMFSQAQLQFCVETVGIERIMFSVDYPFLGNDGAEAFLRQANLPPLATEKIAHLNAERLLALPS
modifications: Streptomyces violaceusniger
B4: SEQ ID NO:114: Design variant of SEQ ID NO: 1 (protein)
chain: MAQGKVALEEHFAIPETLQDSAGAVPGDYWKELQHRLLDIQDTRLKLMDAHGIETMILSLNAPAVQAIPDRRKAIEIARRANDVLAEECAKRPDRFLAFAALPLQDPDAATEELQRCVNDLGFVGALVNGFSQEGDGQTPLYYDLPQYRPFWGEVEKLDVPFYLHPRNPLPQDSRIYDGHPWLLGPTWAFAQETAVHALRLMASGLFDEHPRLNIILGHMGEGLPYMMWRIDHRVAWVKLPPRYPAKRRFMDYFNENFHITTSGNFRTQTLIDAILEIGADRILFSTDWPFENIDHASDWFNATSIAEADRVKIGRTNARRLFKLDGA
modifications: Dicamba decarboxylase variant clone DC.4.116
B5: SEQ ID NO:113: Design variant of SEQ ID NO: 1 (protein)
chain: B4 chain with A24F, W30L, Q34F
modifications: Dicamba decarboxylase variant clone DC.4.114
B6: SEQ ID NO:109: Design variant of SEQ ID NO: 1; designed mutation N235V (protein)
chain: B4 chain with A24F
modifications: Dicamba decarboxylase variant clone DC.4.032
notes: designed mutation N235V
B7: SEQ ID NO:111: Design variant of SEQ ID NO: 1 (protein)
chain: B4 chain with A22M, A24F, Q34M, V235M, V238I
modifications: Dicamba decarboxylase variant clone DC.4.112
B8: SEQ ID NO:112: Design variant of SEQ ID NO: 1 (protein)
chain: B4 chain with A24F, Q34V
modifications: Dicamba decarboxylase variant clone DC.4.113
B9: SEQ ID NO:110: Design variant of SEQ ID NO: 1 (protein)
chain: B4 chain with A22M, A24F, Q34M, V235M
modifications: Dicamba decarboxylase variant clone DC.4.111
B10: SEQ ID NO:116: Design variant of SEQ ID NO: 41; new 35 amino acid N-terminal loop (protein)
chain: MAQGKVALEEHFAIPETLQDAAGFVPGDYWKELQHRLLDIQDRRVRLMDEHGIETMILSLNAPAVQAIADSTRANETARRANDFLAEQVAKQPTRFRGFAALPMQDPELAARELERCVKELGFVGALVNGFSQDNRSAVPLYYDMAQYWPFWETVQALDVPFYLHPRNPLPSDARIYDGHAWLLGPTWAFGQETAVHALRLMGSGLFDKYPALKIILGHMGEGLPYSMWRIDHRNAWIKTTPKYPAKRKIVDYFNENFYLTTSGNFRTQTLIDAILEIGADRILFSTDWPFENIDHAADWFENTSISEADRKKIGWGNAQNLFKLNR
modifications: Dicamba decarboxylase variant clone DC.30.007
notes: new 35 amino acid N-terminal loop

Legend:
[1] = Detection of 2,5-DCP product by GC/MS; format: biochemical; details: purified protein
Procedure: The decarboxylated and demethylated product of dicamba, 2,5-dichloro phenol or 2,5-DCP (FIG. 1E) is measured using a GC/MS analytical procedure with either liquid injection after liquid/liquid extraction using toluene as the extraction solvent or gas injection using head space method. The head space sample analysis is carried out on an Agilent GC/MS system with a 6890A GC, a 5973N MSD and a CTC CombiPAL auto-sampler or with a 7890A GC, a 5975C MSD and an Agilent GC Sampler 80 auto-sampler with Phenomenex ZB-MultiResidue-1 column (30 m length, 0.25 mm diameter, 0.25 um film) or equivalent. GC/MS parameters are: GC inlet temperature, 200° C.; Carry gas, helium in constant flow mode (1.2 mL/min); Oven temperature program, 70° C. for 1 min and then ramp to 275° C. at 40° C./min. […] The reaction vial is transferred to a agitator for incubation at 90° C. for 4 min at 500 rpm. With a syringe preheated at 110° C., 1000 uL of head space is injected with sample fill speed at 100 uL/sec. A 2-mm diameter liner is used in sample inlet. The MS data acquisition is done in SIM (selected ion monitoring) mode. The positive ion at M/Z 162 for the molecular ion of 2,-5-DCP is monitored at retention time of 4.06 min. Solvent delay for MS acquisition is set at 3 min. GC/MS parameters for liquid sample analysis are the same as those for head space analysis, except that the volume of liquid injection is 1 uL.

[2] = 14C assay with purified protein (14CO2 captured on Ca(OH)2 filter paper); format: biochemical; details: [14C]-carboxyl-labeled dicamba
[3] = 14C assay with IPTG-induced recombinant E. coli cells (14CO2 capture from [14C]-carboxyl-labeled dicamba); details: E. coli cell assay, 108 sequences tested
[4] = Detection of 4-chloro-3-methoxy phenol product by LC-MS/MS; format: biochemical; details: purified protein
Procedure: The decarboxylated and chloro hydrolyzed product, 4-chloro-3-methoxy phenol (FIG. 1D), is measured using a LC-MS/MS analytical procedure. […] 10 ul is removed from the reaction mixture and mixed with 90 ul pre-chilled methanol followed by centrifugation at 14,000 rpm for 15 min at 4° C. 10 ul of the supernatant is then transferred into 170 ul ddH2O to achieve 5% methanol solution for injection. 50 ul of the prepared sample is injected into a 4000 Q Trap LC-MS/MS system for sample analysis. LC-MS/MS parameters are: Mobile Phase A, 2 mM ammonium acetate in water; Mobile Phase B, 2 mM ammonium acetate in methanol; Column, Aquasil, 100×2.1 mm, 3 μm, C18 column; Flow Rate, 0.6 ml/min. The MS/MS fragment 157/142 which is common to 4-chloro-3-methoxy phenol, 2-chloro-5-methoxy phenol, and 3-chloro-5-methoxy phenol is monitored at a retention time of 2.88 min.

[5] = Dicamba decarboxylation activity of computationally designed protein variants; details: native protein or designed variant versus parent

Molecule | 2,5-DCP product [1] | CO2 product [2] | decarboxylation activity of dicamba [3] | 4-chloro-3-methoxy phenol product [4] | Dicamba Decarboxylase Activity [5]
B1 | detected | detected | showed decarboxylation activity of dicamba | detected | –
B2 | detected | detected | – | detected | displays an increase in dicamba decarboxylase activity
B3 | detected | detected | showed decarboxylation activity of dicamba | detected | –
B4 | detected | detected | – | detected | displays an increase in dicamba decarboxylase activity
B5 | detected | detected | – | detected | displays an increase in dicamba decarboxylase activity
B6 | detected | detected | – | detected | more active than their parent sequence; also recorded: displays an increase in dicamba decarboxylase activity
B7 | detected | detected | – | detected | displays an increase in dicamba decarboxylase activity
B8 | detected | detected | – | detected | displays an increase in dicamba decarboxylase activity
B9 | detected | detected | – | detected | displays an increase in dicamba decarboxylase activity
B10 | detected | detected | – | detected | displays an increase in dicamba decarboxylase activity
